Here are results for one substance from EP4755920A1.

For this test, the target named is hIL4Rα-ECD(26-232)-mFc (human). Briefly: competition ELISA, hIL4R-ECD-mFc captured by anti-mFc, biotinylated human IL4 as competitor. On the technique in general: ELISA stands for enzyme-linked immunosorbent assay.

What is called IC50 is the concentration needed to halve the response being measured. A lower IC50 goes with greater potency in that assay. For the substance Isotype (antibody), the IC50 stood at 9.95 nM.
